# From patent US20050026233A1, “Methods of monitoring and modulating LKB1 activity and its downstream targets” (Medical Research Council, priority 2003, published 2005)
# B1: LKB1: FLAG-tagged full length wild-type mouse LKB1 tumor suppressor kinase purified from COS7 cell lysates (protein, UniProt Q9WTK7 1-436, looked up)
# chain: MDVADPEPLGLFSEGELMSVGMDTFIHRIDSTEVIYQPRRKRAKLIGKYLMGDLLGEGSYGKVKEVLDSETLCRRAVKILKKKKLRRIPNGEANVKKEIQLLRRLRHRNVIQLVDVLYNEEKQKMYMVMEYCVCGMQEMLDSVPEKRFPVCQAHGYFRQLIDGLEYLHSQGIVHKDIKPGNLLLTTNGTLKISDLGVAEALHPFAVDDTCRTSQGSPAFQPPEIANGLDTFSGFKVDIWSAGVTLYNITTGLYPFEGDNIYKLFENIGRGDFTIPCDCGPPLSDLLRGMLEYEPAKRFSIRQIRQHSWFRKKHPLAEALVPIPPSPDTKDRWRSMTVVPYLEDLHGRAEEEEEEDLFDIEDGIIYTQDFTVPGQVLEEEVGQNGQSHSLPKAVCVNGTEPQLSSKVKPEGRPGTANPARKVCSSNKIRRLSACKQQ
# modifications: full-length FLAG tag
# notes: FLAG-tagged full length wild-type mouse LKB1 tumor suppressor kinase purified from COS7 cell lysates
# Columns and labels:
# AMPK (α1β1γ1) = target: T1, AMPK (α1β1γ1) (Rattus norvegicus, UniProt P54645); assay: Activation of bacterially expressed AMPK by upstream kinase, SAMS peptide assay; assay type: biochemical, mammalian; conditions: recombinant AMPK α1β1γ1, MgATP, 30 min at 30° C
# T1 construct: made in house; host or cells: bacteria (E. coli per the title of Neumann 2003)
# Protocol: FIG. 4. Tos3p and LKB1 phosphorylate and activate AMPK in vitro. (A) Bacterially expressed AMPK (α1β1γ1 (Neumann, 2003)) was incubated with MgATP and GST-kinase bound to glutathione-Sepharose for 30 min at 30° C. Following centrifugation to remove the resin, AMPK activity in the supernatant was measured using the SAMS peptide assay (Davies, 1989).
# The beads were removed by centrifugation, and proteins in the supernatant were analyzed by SDS-PAGE and autoradiography. Molecular size markers (kDa) are indicated. (C) Bacterially expressed AMPK (0.15 μg) was phosphorylated by GST-Tos3p and analysed by immunoblotting with anti-phosphothreonine 172 specific antibody (Cell Signalling Technologies). […]
# Recombinant AMPK (α1β1γ1) expressed in bacteria (Neumann, 2003) was incubated with each of the kinases and MgATP, and AMPK activity was determined using the SAMS peptide assay. […]
# Following centrifugation to remove the resin, AMPK activity in the supernatant was measured using the SAMS peptide assay (Davies, 1989).
# Bacterially expressed AMPK (α1β1γ1) was purified by chromatography using Ni-NTA agarose (Qiagen) as previously described (the purification is as in Neumann et al., 2003 Protein Expression and Purification, incorporated herein by reference). […] Following brief centrifugation, the supernatant containing AMPK was removed and activity measured using the SAMS peptide assay (Davies et al., 1989). […]
# AMPK = assay: Phosphorylation of T172 of AMPK by immunoblotting with anti-phosphothreonine 172 antibody; assay type: biochemical, mammalian; conditions: immunoblot
# Protocol: The beads were removed by centrifugation, and proteins in the supernatant were analyzed by SDS-PAGE and autoradiography. Molecular size markers (kDa) are indicated. (C) Bacterially expressed AMPK (0.15 μg) was phosphorylated by GST-Tos3p and analysed by immunoblotting with anti-phosphothreonine 172 specific antibody (Cell Signalling Technologies). AMPK was also incubated with GST or partially purified rat liver AMPKK (Hawley, 1996).
# Phosphorylation of T172 was determined by immunoblotting (FIG. 4E).
# Bacterially expressed AMPK (α1β1γ1) was purified by chromatography using Ni-NTA agarose (Qiagen) as previously described (the purification is as in Neumann et al., 2003 Protein Expression and Purification, incorporated herein by reference). AMPK was incubated with 100 μM ATP, 5 mM MgCl2, 200 μM AMP and 1 mM DTT in 50 mM Hepes, pH 7.4 in the presence or absence of upstream kinase for 30 min at 30° C. Following brief centrifugation, the supernatant containing AMPK was removed and activity measured using the SAMS peptide assay (Davies et al., 1989). Phosphorylation of T172 was determined by Western blotting using an antibody that specifically recognizes phospho-threonine 172 within the α subunit of AMPK (Cell Signaling Technologies).
# Chain of AMPK (P54645 13-559 limits assumed): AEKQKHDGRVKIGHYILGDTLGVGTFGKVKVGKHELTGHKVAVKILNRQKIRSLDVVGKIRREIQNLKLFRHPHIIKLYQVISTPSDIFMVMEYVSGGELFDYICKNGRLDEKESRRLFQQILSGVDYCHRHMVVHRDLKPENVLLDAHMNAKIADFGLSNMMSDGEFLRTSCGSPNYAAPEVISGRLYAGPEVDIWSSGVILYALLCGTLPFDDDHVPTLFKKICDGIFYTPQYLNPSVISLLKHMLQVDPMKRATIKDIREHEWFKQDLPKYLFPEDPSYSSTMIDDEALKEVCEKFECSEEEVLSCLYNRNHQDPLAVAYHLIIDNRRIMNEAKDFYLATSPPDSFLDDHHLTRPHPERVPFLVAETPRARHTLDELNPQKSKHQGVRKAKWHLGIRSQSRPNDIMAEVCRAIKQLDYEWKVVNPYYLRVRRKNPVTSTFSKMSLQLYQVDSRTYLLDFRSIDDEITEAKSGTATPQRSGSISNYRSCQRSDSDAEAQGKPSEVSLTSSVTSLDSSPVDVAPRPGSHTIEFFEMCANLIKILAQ
# Chain of AMPK (P80386 whole entry partner): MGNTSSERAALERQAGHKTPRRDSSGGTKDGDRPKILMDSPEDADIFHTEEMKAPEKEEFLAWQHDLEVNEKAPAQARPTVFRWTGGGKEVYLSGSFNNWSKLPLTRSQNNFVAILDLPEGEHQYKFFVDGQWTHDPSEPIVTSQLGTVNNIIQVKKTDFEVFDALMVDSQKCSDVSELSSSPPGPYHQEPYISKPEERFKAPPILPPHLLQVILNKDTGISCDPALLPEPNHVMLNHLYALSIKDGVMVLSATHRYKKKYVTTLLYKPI
# Chain of AMPK (P80385 whole entry partner): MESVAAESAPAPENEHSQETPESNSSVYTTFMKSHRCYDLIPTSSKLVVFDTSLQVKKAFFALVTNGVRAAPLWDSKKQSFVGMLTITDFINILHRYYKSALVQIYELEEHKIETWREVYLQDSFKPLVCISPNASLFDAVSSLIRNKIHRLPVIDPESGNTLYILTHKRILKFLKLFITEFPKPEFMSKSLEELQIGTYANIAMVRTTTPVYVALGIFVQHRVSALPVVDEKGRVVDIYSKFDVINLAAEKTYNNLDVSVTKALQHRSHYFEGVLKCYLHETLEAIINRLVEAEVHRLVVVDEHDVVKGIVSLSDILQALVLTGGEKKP
# T1 sequence (P54645 13-559 limits assumed): as the sequence (P54645 13-559 limits assumed) above
# T1 sequence (P80386 whole entry partner): as the sequence (P80386 whole entry partner) above
# T1 sequence (P80385 whole entry partner): as the sequence (P80385 whole entry partner) above
molecule,measurement,setting,value
B1,AMPK activity after incubation with upstream kinase,AMPK (α1β1γ1),activated recombinant AMPK
same,Phosphorylation of AMPK on T172,AMPK,phosphorylated T172
